Data taken from US20190022198A1, “Individualized Immunomodulation Therapy for Neurodegenerative Disorders, CNS Injury and Age-Related Dementia” (Yeda Research and Development Co. Ltd., priority 2012, published 2019).

B1: GM-CSF: cytokine purchased from PeproTech (protein, UniProt P01587 18-141, looked up)
Granulocyte-macrophage …: APTRSPITVTRPWKHVEAIKEALNLLDDMPVTLNEEVEVVSNEFSFKKLTCVQTRLKIFEQGLRGNFTKLKGALNMTASYYQTYCPPTPETDCETQVTTYADFIDSLKTFLTDIPFECKKPGQK
B2: IL-6: pro-inflammatory cytokine, purchased from PeproTech (protein, UniProt P08505 25-211, looked up)
Interleukin-6: FPTSQVRRGDFTEDTTPNRPVYTTSQVGGLITHVLWEIVEMRKELCNGNSDCMNNDDALAENNLKLPEIQRNDGCYQTGYNQEICLLKISSGLLEYHSYLEYMKNNLKDNKKDKARVLQRDTETLIHIFNQEVKDLHKIVLPTPISNALLTDKLESQKEWLRTKTIQFILKSLEEFLKVTLRSTRQT
B3: IL-1β: pro-inflammatory cytokine, purchased from PeproTech (protein, UniProt P10749 118-269, looked up)
Interleukin-1 beta: VPIRQLHYRLRDEQQKSLVLSDPYELKALHLNGQNINQQVIFSMSFVQGEPSNDKIPVALGLKGKNLYLSCVMKDGTPTLQLESVDPKQYPKKKMEKRFVFNKIEVKSKVEFESAEFPNWYISTSQAEHKPVFLGNNSGQDIIDFTMESVSS
B4: IL-10: Treg-derived cytokine, purchased from PeproTech (protein, UniProt P18893 19-178, looked up)
Interleukin-10: SRGQYSREDNNCTHFPVGQSHMLLELRTAFSQVKTFFQTKDQLDNILLTDSLMQDFKGYLGCQALSEMIQFYLVEVMPQAEKHGPEIKEHLNSLGEKLKTLRMRLRRCHRFLPCENKSKAVEQVKSDFNKLQDQGVYKAMNEFDIFINCIEAYMMIKMKS
B5: IL-17: Th17-derived cytokine, purchased from PeproTech (protein, UniProt Q62386 26-158, looked up)
Interleukin-17A: AAIIPQSSACPNTEAKDFLQNVKVNLKVFNSLGAKVSSRRPSDYLNRSTSPWTLHRNEDPDRYPSVIWEAQCRHQRCVNAEGKLDHHMNSVLIQQEILVLKREPESCPFTFRVEKMLVGVGCTCVASIVRQAA

System: CP epithelial cells
Experiment: Primary culture of choroid plexus cells treated with cytokines, mRNA by real-time qPCR
Assay type: cell-based, mouse
Settings: for expression of trafficking-related genes, escalating dosing of the cytokines: cultured CP cells, escalating dosing (data not shown); for expression of IFN-γ-receptor (IFN-γR) mRNA: TNF-α 100 ng/ml, IL-1β 100 ng/ml; for expression of IFN-γ-receptor (IFN-γR) mRNA / gene expression levels of trafficking molecules (ICAM-1, VCAM-1, CCL5, CXCL9, CXCL10, MHC-II): IL-6 10 ng/ml; for gene expression levels of trafficking molecules (ICAM-1, VCAM-1, CCL5, CXCL9, CXCL10, MHC-II): cultured CP cells from WT mice, 24 hours, IL-4 10 ng/ml
Experimental: Mice were perfused from the left ventricle of the heart with PBS, and their CPs were removed under a dissecting microscope (Stemi DV4; Zeiss) in PBS into tubes containing 0.25% trypsin, and kept on ice. The tubes were shaken for 20 minutes at 37° C. and the tissue was dissociated by pipetting. The cell suspension was washed in culture medium for epithelial cells (DMEM/HAM's F12 (Invitrogen Corp)) supplemented with 10% FCS (Sigma-Aldrich), 1 mM 1-glutamine, 1 mM sodium pyruvate, 100 U/ml penicillin, […] streptomycin, 5 μg/ml Insulin, 20 μM Ara-C, 5 ng/ml sodium selenite, 10 ng/ml EGF, and cultured (˜250,000 cells/well) at 37° C., 5% CO2 in 24-well plates (Corning Incorporated) coated with poly-L-lysine (PLL; Sigma-Aldrich). After 24 hours, the medium was changed, and the cells were either left untreated, or treated with the indicated cytokines (all purchased from PeproTech): IFN-γ, IL-4, IL-10, IL-17A, GM-CSF, IL-6, IL-1β or TNF-α or their combinations for 24 h. Cell viability was quantified by Trypan blue staining after detachment of the cells with 0.25% trypsin for 10 minutes at 37° C. Neutralizing antibodies to TNF-R1 or TNF-R2 ([…], BioLegend) were added 1 h prior to the addition of TNF-α (100 ng/ml). RNA was isolated using the ZR RNA microprep kit (Zymo Research) according to the manufacturer's protocol.
Total RNA of the hippocampus was extracted with TRI reagent (MRC, Cincinnati, Ohio) and was purified from the lysates and spinal cord using the RNeasy kit (Qiagen, Hilden, Germany). Total RNA of the choroid plexus was extracted using the RNA MicroPrep kit (Zymo Research). mRNA (1 μg) was converted to cDNA using High Capacity cDNA Reverse Transcription Kit (Applied Biosystems). The expression of specific mRNAs was assayed using fluorescence based real-time quantitative PCR (qPCR). qPCR reactions were performed using Power SYBR Green PCR Master Mix (Applied Biosystems). Quantification reactions were performed in triplicates for each sample using the standard curve method. Glyceraldehyde 3-phosphate dehydrogenase (GAPDH), Peptidylprolyl isomerase A (PPIA), and hypoxanthine guanine phosphoribosyltransferase (HPRT) were chosen as reference genes according to their stability in the target tissue. The amplification cycles were 95° C. for 5 sec, 60° C. for 20 sec, and 72° C. for 15 sec. At the end of the assay, a melting curve was constructed to evaluate the specificity of the reaction. For some genes, the cDNA was pre-amplified in 14 PCR cycles with non-random PCR primers, thus increasing the sensitivity of the subsequent real-time PCR analysis (PreAmp Master Mix Kit, Applied Biosystems). For these genes, expression was determined using TaqMan Real-Time PCR, according to manufacturer's instructions (Applied Biosystems). All quantitative real-time PCR reactions were performed and analyzed using the 7500 Real-Time PCR System (Applied Biosystems). The following TaqMan probes were used: Mm02342430_g1 (ppia), Mm00446968_m1 (hprt), Mm00445260_m1 (il-4), Mm01168134_m1 (ifn-γ), Mm00441238_m1 (ccl11), Mm00475988_m1 (arg-1). In addition, the following primers were used: […]

[1] = IFN-γ 100 ng/ml, IL-17 100 ng/ml

| Molecule | expression of trafficking-related genes, escalating dosing of the cytokines | expression of IFN-γ-receptor (IFN-γR) mRNA (CP epithelial cells, 24 h) | gene expression levels of trafficking molecules (ICAM-1, VCAM-1, CCL5, CXCL9, CXCL10, MHC-II) [1] | expression of the chemokine CCL20 (CP epithelial cells, IL-17 100 ng/ml, IFN-γ 100 ng/ml, 24 h) |
| --- | --- | --- | --- | --- |
| B1 | None of the tested cytokines, other than IFN-γ, had any effect |  |  |  |
| B2 | None of the tested cytokines, other than IFN-γ, had any effect | not | neither IL-17, nor its induced cytokine IL-6, had any effect |  |
| B3 |  | elevated the expression of IFN-γ-receptor |  |  |
| B4 | None of the tested cytokines, other than IFN-γ, had any effect |  |  |  |
| B5 |  |  | failed to activate the choroid plexus for trafficking | elevated the expression of the chemokine CCL20 |
